As a reminder, the stoichiometry N is a count of units in the complex or per binding partner.

For test [1], the target named is Sporisorium reilianum Jps1 (SrJps1) (Sporisorium reilianum). Kind of test: mass photometry.
Test [2] shares this target. Kind of test: SEC-MALS.
For test [3], the target named is Ustilago maydis Jps1^1-484 M^5 (alanine replacements of the basic cluster R162, R163, R164) (Ustilago maydis). The test is described as follows: SEC-MALS. In general terms: In gel filtration, larger molecules generally elute earlier.
Test [4] addresses Ustilago maydis Jps1 lacking the unstructured C-terminus (Jps1^1-484) (Ustilago maydis). Kind of test: SAXS.
Test [5] has the same target. Kind of test: SEC-MALS.
Test [6] addresses Ustilago maydis Jps1, full length (Jps1^1-609) (Ustilago maydis). The test is described as follows: mass photometry.
For test [7] the target is unchanged. Kind of test: SEC-MALS.
In test [8] the target is Hebeloma cylindrosporum Jps1 (HcJps1) (Hebeloma cylindrosporum). The test is described as follows: SEC-MALS.

With “Sporisorium reilianum Jps1 (SrJps1) (natural protein)”, the stoichiometry N in test [1] and in test [2] was 2 in each case.

For “Ustilago maydis Jps1^1-484 M^5 (alanine replacements of the basic cluster R162, R163, R164) (domain or fragment)”, the stoichiometry N in test [3] turned out to be 2.

Turning to “Ustilago maydis Jps1 lacking the unstructured C-terminus (Jps1^1-484) (domain or fragment)”, the stoichiometry N in test [4] and in test [5] was 2 throughout.

In test [6], “Ustilago maydis Jps1, full length (Jps1^1-609) (natural protein)” had a percent of particles in the dimer fraction (125 kDa) of 69%, a percent of particles in the monomer fraction (64 kDa) of 9% and a stoichiometry N of 2. The substance also registered a stoichiometry N in test [7] of 2.

In test [8], “Hebeloma cylindrosporum Jps1 (HcJps1) (natural protein)” registered a stoichiometry N of 2.

These data come from publication doi:10.1101/2024.02.29.582524.
